Measured values published in article PMC4935067 (Nature, 2015).

Target: the molecule itself
Assay: SEC

B1: Csy3, MBP/6xHis-tagged (natural protein, Pseudomonas aeruginosa, UniProt Q02MM1 1-342, looked up)
chain: MSKPILSTASVLAFERKLDPSDALMSAGAWAQRDASQEWPAVTVREKSVRGTISNRLKTKDRDPAKLDASIQSPNLQTVDVANLPSDADTLKVRFTLRVLGGAGTPSACNDAAYRDKLLQTVATYVNDQGFAELARRYAHNLANARFLWRNRVGAEAVEVRINHIRQGEVARAWRFDALAIGLRDFKADAELDALAELIASGLSGSGHVLLEVVAFARIGDGQEVFPSQELILDKGDKKGQKSKTLYSVRDAAAIHSQKIGNALRTIDTWYPDEDGLGPIAVEPYGSVTSQGKAYRQPKQKLDFYTLLDNWVLRDEAPAVEQQHYVIANLIRGGVFGEAEEK
- binding result: binds
